B1: Focal adhesion kinase 1 (Gallus gallus (Chicken)), Q00944 (parent)
chain: MAAAYLDPNLNHTPSSSAKTHLGTGMERSPGAMERVLKVFHYFENSSEPTTWASIIRHGDATDVRGIIQKIVDCHKVKNVACYGLRLSHLQSEEVHWLHLDMGVSNVREKFELAHPPEEWKYELRIRYLPKGFLNQFTEDKPTLNFFYQQVKNDYMLEIADQVDQEIALKLGCLEIRRSYGEMRGNALEKKSNYEVLEKDVGLRRFFPKSLLDSVKAKTLRKLIQQTFRQFANLNREESILKFFEILSPVYRFDKECFKCALGSSWIISVELAIGPEEGISYLTDKGANPTHLADFNQVQTIQYSNSEDKDRKGMLQLKIAGAPEPLTVTAPSLTIAENMADLIDGYCRLVNGATQSFIIRPQKEGERALPSIPKLANNEKQGVRSHTVSVSETDDYAEIIDEEDTYTMPSTRDYEIQRERIELGRCIGEGQFGDVHQGIYMSPENPAMAVAIKTCKNCTSDSVREKFLQEALTMRQFDHPHIVKLIGVITENPVWIIMELCTLGELRSFLQVRKFSLDLASLILYAYQLSTALAYLESKRFVHRDIAARNVLVSATDCVKLGDFGLSRYMEDSTYYKASKGKLPIKWMAPESINFRRFTSASDVWMFGVCMWEILMHGVKPFQGVKNNDVIGRIENGERLPMPPNCPPTLYSLMTKCWAYDPSRRPRFTELKAQLSTILEEEKLQQEERMRMESRRQVTVSWDSGGSDEAPPKPSRPGYPSPRSSEGFYPSPQHMVQPNHYQVSGYSGSHGIPAMAGSIYPGQASLLDQTDSWNHRPQEVSAWQPNMEDSGTLDVRGMGQVLPTHLMEERLIRQQQEMEEDQRWLEKEERFLVMKPDVRLSRGSIEREDGGLQGPAGNQHIYQPVGKPDHAAPPKKPPRPGAPHLGSLASLNSPVDSYNEGVKIKPQEISPPPTANLDRSNDKVYENVTGLVKAVIEMSSKIQPAPPEEYVPMVKEVGLALRTLLATVDESLPVLPASTHREIEMAQKLLNSDLAELINKMKLAQQYVMTSLQQEYKKQMLTAAHALAVDAKNLLDVIDQARLKMISQSRPH

Variants of: B1
Details: with src_chick SRC

**Q.** How did the “effect of a mutation on the interaction” value turn out when Y576F;Y577F was run?
**A.** Its value is “decreasing interaction”.

**Q.** For Y397F;K454R, which “effect of a mutation on the interaction” value is on record?
**A.** Its value is “disrupting interaction”.

**Q.** With Y397F as the variant, how does the “effect of a mutation on the interaction” value read?
**A.** The value was “disrupting interaction”.

**Q.** For K454R, which “effect of a mutation on the interaction” value is on record?
**A.** The value was “decreasing interaction”.
